The values that follow come from US8247535B2, “Directed evolution of GRG31 EPSP synthase enzyme” (Athenix Corp., priority 2008, dated 2012).

What all share (format): biochemical
The subject of series [1] is GRG31 EPSP synthase. Briefly: Extract prescreens of library clones at a few glyphosate and PEP concentrations. The following applies: for activity in glyphosate prescreen / activity at low PEP concentrations: extracts; for activity in glyphosate prescreen: 0, 1, and 2 mM glyphosate, among 31 resistant clones; for activity at low PEP concentrations: 0, 20, 50, and 100 μM PEP, among six clones; for combination of glyphosate resistance and activity at low PEP concentrations: library 3, 0 and 0.2 mM glyphosate, 0, 20, and 50 μM PEP. On the procedure: Library 1 was cloned into pAX3625 and 130,000 clones were plated onto plates containing 50 mM glyphosate. […] Extracts were prepared and assessed for glyphosate resistance by assaying activity in the presence of a small number of glyphosate concentrations (0, 1, and 2 mM glyphosate).
Extracts from these six clones were assayed for activity at a range of PEP concentrations (0, 20, 50, and 100 μM PEP).
One hundred and fifteen thousand (115,000) clones were plated onto plates containing 50 mM glyphosate and 384 glyphosate resistant clones were picked for sequencing. […] A Ki assessment of the unique clones was carried out by testing activity at 0 and 0.2 mM glyphosate. […] An assessment of the Km of protein encoded by these nine clones was performed by comparing activity at 0, 20, and 50 μM PEP.

Series [2] deals with GRG31 EPSP synthase. Nature of the series: Kinetic analysis of GRG31 variants (Ki for glyphosate, Km for PEP, Vmax). More on the design: Vmax: unit not given here. The following applies: for Ki: Ki for glyphosate, calculated from plot of Km(app) vs. glyphosate concentration; for Km: Km for PEP; for Vmax: unit not given; for improvement in Ki for glyphosate relative to GRG31 / Vmax relative to GRG31 / improvement in Km for PEP relative to GRG31: relative to GRG31, in words; for Vmax improvement over the GRG31(L3P2c11) protein: relative to GRG31(L3P2c11), in words. As to the method: GRG31 variants L3P2b11, L3P2c11 and L4e11, and L5e3 were characterized by enzymatic assays as described herein, and compared to the native GRG31 enzyme. For each enzyme the apparent Km (Km(app)) was determined at each of several glyphosate concentrations, and a plot of Km(app) vs. glyphosate concentration was used to calculate the Ki for each enzyme. The thermostability for each enzyme was assessed by incubating the enzyme at 37° C. for 16 hours, and then quantifying the enzymatic activity remaining (as Vmax) vs. control enzyme that was incubated at 4° C.

Series [3] concerns GRG31 EPSP synthase. The following applies: for thermostability at 37° C. compared with GRG31: survival of activity at 37° C., in words. On the procedure:
The thermostability of several variants of GRG31 was analyzed by measuring survival of activity at 37° C.

Numbering of substitutions follows the chain as printed.

B1: GRG31pm3a11: GRG31 Q-loop library 1 variant, SEQ ID NO:7 (protein)
chain: MNQQVITLTHPSKKIQGTVQLTGSKSESNRALIIQSLSKGQVEIANLSEAADTVTLNRVLQIASDPKPGFNTIDCGNAGTSVRFLTGFLNLVKGNFILTGTERMQQRPIGILVDAMKEIGADIHYDKKVGYPPLKIEGGLFQEKDRVKIKGNISSQYISALLLIAPALKKGLTLEIEGELTSRPYVSMTLDMLKSVGIQHEWKNNAIKIAPQAFEKQTIYVEPDWSAASYWYAIAALADANASIVLPGLRKNSLQGDIAIISIMEHFGVQSSFESDGLHLNKKVIGSDVSLFNFKECPDLAQTVVVVAAALKRDVSFTGLETLKIKETDRIAALQKEIAKFGAELIEDGDTYHLKTAQVYQPEEVTFDTYEDHRMAMAFAPLALVFDQIKIAEPQVVEKSYPDFWNHLQAQAFVIE
modifications: GRG31 variant (clone GRG31pm3a11)
Consider B1, for which, in series [1], the “activity in glyphosate prescreen” value is “best activity” and the “activity at low PEP concentrations” value is “best activity at low PEP concentrations”.

B2: L3P2b11 + 6e7: GRG31 variant P77→Q; A81→S; M82→L; Y88→F; E215→K, SEQ ID NO:22 (protein)
chain: B1 chain with C75I, N77Q, V82L, G87A, E215K
modifications: GRG31 variant (L3P2b11+6e)
As for B2, in series [2], the Ki was 1010 µM; the Km (as a rule, the concentration of substrate that gives half-maximal velocity) was 10.3 µM; the Vmax amounted to 0.86.

B3: L3P2b11 + 6b2: GRG31 variant P77→Q; A81→S; M82→L; Y88→F; N95→S, A206→V, SEQ ID NO:26 (protein)
chain: B1 chain with C75I, N77Q, V82L, G87A, N95S, A206V
modifications: GRG31 variant (L3P2b11+6b2)
For the molecule B3, in series [2], the Ki is 628 µM, the Km amounted to 8 µM and the Vmax came out at 0.59.

B4: L3P2c11 + triple EK: GRG31 variant Y88→F; N95→S, A206→V; E215→K, SEQ ID NO:23 (protein)
chain: B1 chain with C75I, N77P, S81A, V82M, G87A, N95S, A206V, E215K
modifications: GRG31 variant (L3P2c11+triple EK)
Consider B4, for which, in series [2], the Ki is 298 µM, the Km worked out at 12.6 µM and the Vmax was found to be 14.4. Besides, in series [3], the “t1/2 at 37° C.” value is 2.7 h and the “thermostability at 37° C. compared with GRG31” value is “thermostability equivalent to GRG31”.

B5: GRG31pm3a8: GRG31 Q-loop library 1 variant, SEQ ID NO:9 (protein)
chain: B1 chain with N77P, S81G, G87A
modifications: GRG31 variant (clone GRG31pm3a8)
Regarding B5, the “activity in glyphosate prescreen” value in series [1] is recorded as “best activity”.

B6: L5e3: GRG31 variant P77→T, SEQ ID NO:17 (protein)
chain: B1 chain with C75I, N77T, S81A, V82M, G87A, F88Y
modifications: GRG31 variant (clone L5e3)
As to B6, in series [2], the Ki is 507 µM, the Km was found to be 11.4 µM and the Vmax is recorded as 3.6. Besides, in series [3], the “t1/2 at 37° C.” value came out at 10.8 h and the “thermostability at 37° C. compared with GRG31” value is reported as “improved thermostability”.

B7: L3P2c11: GRG31 variant Y88→F, SEQ ID NO:14 (protein)
chain: B1 chain with C75I, N77P, S81A, V82M, G87A
modifications: GRG31 variant (clone L3P2c11)
For B7, the “combination of glyphosate resistance and activity at low PEP concentrations” value in series [1] was “best combination of glyphosate resistance and activity at low PEP concentrations”. Besides, in series [2], the Ki is 715 µM, the Km amounted to 39.6 µM, the “improvement in Ki for glyphosate relative to GRG31” value is “improved” and the Vmax worked out at 5.3.

B8: L3P2b11: GRG31 variant P77→Q; A81→S; M82→L; Y88→F, SEQ ID NO:13 (protein)
chain: B1 chain with C75I, N77Q, V82L, G87A
modifications: GRG31 variant (clone L3P2b11)
Consider B8, for which the “combination of glyphosate resistance and activity at low PEP concentrations” value in series [1] was “best combination of glyphosate resistance and activity at low PEP concentrations”. Besides, in series [2], the Ki is 983 µM, the Km was 11 µM, the “improvement in Ki for glyphosate relative to GRG31” value is given as “improved” and the Vmax is 5.7.

B9: L3P2b11 + triple EK: GRG31 variant P77→Q; A81→S; M82→L; Y88→F; N95→S, A206→V; E215→K, SEQ ID NO:24 (protein)
chain: B1 chain with C75I, N77Q, V82L, G87A, N95S, A206V, E215K
modifications: GRG31 variant (L3P2b11+triple EK)
In the case of B9, in series [2], the Ki was 606 µM, the Km worked out at 12.3 µM and the Vmax was 0.72.

B10: L3P2c11 + 6e7: GRG31 variant Y88→F; E215→K, SEQ ID NO:21 (protein)
chain: B1 chain with C75I, N77P, S81A, V82M, G87A, E215K
modifications: GRG31 variant (L3P2c11+6e7)
As to B10, in series [2], the Ki was 416 µM, the Km was 8.6 µM, the “Vmax improvement over the GRG31(L3P2c11) protein” value was “about four to five-fold” and the “Vmax relative to GRG31” value is listed as “approximately equal to that of GRG31”. Besides, in series [2], the “improvement in Ki for glyphosate relative to GRG31” value is reported as “more than four-fold”, the “improvement in Km for PEP relative to GRG31” value was “approximately two-fold” and the Vmax worked out at 23.5.

B11: L3P2c11 + 6b2: GRG31 variant Y88→F; N95→S, A206→V, SEQ ID NO:25 (protein)
chain: B1 chain with C75I, N77P, S81A, V82M, G87A, N95S, A206V
modifications: GRG31 variant (L3P2c11+6b2)
As for B11, in series [2], the Ki is 405 µM, the Km worked out at 7.9 µM, the “Vmax improvement over the GRG31(L3P2c11) protein” value is “about four to five-fold” and the “Vmax relative to GRG31” value is on record as “approximately equal to that of GRG31”. Further, in series [2], the “improvement in Ki for glyphosate relative to GRG31” value is “more than four-fold”, the “improvement in Km for PEP relative to GRG31” value is listed as “approximately two-fold” and the Vmax was 23.4. In series [3], the “t1/2 at 37° C.” value worked out at 3.5 h and the “thermostability at 37° C. compared with GRG31” value was “improved thermostability”.

B12: GRG31pm3a6: GRG31 Q-loop library 1 variant, SEQ ID NO:8 (protein)
chain: B1 chain with V82M, G87A, F88V
modifications: GRG31 variant (clone GRG31pm3a6)
With B12, the “activity in glyphosate prescreen” value in series [1] was “best activity”.

B13: GRG31pm3b9: GRG31 Q-loop library 1 variant, SEQ ID NO:11 (protein)
chain: B1 chain with G76D, N77A, V82M, T86A, G87A, F88Y
modifications: GRG31 variant (clone GRG31pm3b9)
For B13, the “activity in glyphosate prescreen” value in series [1] is recorded as “best activity”.

B14: L4e11: GRG31 variant I75→C; A78→S; Y88→H, SEQ ID NO:16 (protein)
chain: B1 chain with N77P, A78S, S81A, V82M, G87A, F88H
modifications: GRG31 variant (clone 4e11)
Regarding B14, in series [2], the Ki is 389 µM, the Km came to 12.4 µM, the “improvement in Ki for glyphosate relative to GRG31” value was “improved” and the Vmax worked out at 3.5.

B15: GRG31pm3d3: GRG31 Q-loop library 1 variant, SEQ ID NO:12 (protein)
chain: B1 chain with G76D, N77A, S81A, V82T, G87A
modifications: GRG31 variant (clone GRG31pm3b3)
For the molecule B15, the “activity in glyphosate prescreen” value in series [1] is “best activity”.

B16: GRG31pm3b8: GRG31 variant I75→C; P77→N; M82→T, SEQ ID NO:10 (protein)
chain: B1 chain with S81A, V82T, G87A, F88Y
modifications: GRG31 variant (clone GRG31pm3b8)
For B16, in series [1], the “activity in glyphosate prescreen” value is recorded as “best activity” and the “activity at low PEP concentrations” value is recorded as “best activity at low PEP concentrations”. For the same molecule, the Ki in series [2] was 116 µM.
